Ends that are not written are not given here. * marks the point of attachment. Biotin = O=C1N[C@H]2[C@H](CS[C@H]2CCCCC(=O)*)N1
Key:
Assay type in all cases: binding
[1] = system: PDZ protein (GST-PDZ fusion); assay: G' assay (10 uM PL peptide), results of TABLE 7 and TABLE 12
Summary of the method: (§1)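 Biotinylated PL peptides at 10 uM (vs 20 uM in G^0 assay) bound to GST-PDZ fusions; PDZ protein at 5 ug/ml unless another concentration listed. Bound peptide read as A450 nm, classified 0–5 (0 = A450 0; 5 = A450 >4 repeated).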

[2] = target: T1, PDZ protein (GST-PDZ fusion) (Homo sapiens, UniProt O75970); assay: as above; details: PDZ MUPP-1, PDZ Domain 10
T1 construct: made in house; host or cells: E. coli (DH5alpha, BL21 or JM109)
Summary of the method: as §1

[3] = target: T2, PDZ protein (GST-PDZ fusion) (Homo sapiens, UniProt Q12923); assay: as above; details: PDZ PTPL-1, PDZ Domain 4
T2 construct: made in house; host or cells: E. coli (DH5alpha, BL21 or JM109)
Summary of the method: as §1

[4] = target: T3, PDZ protein (GST-PDZ fusion) (Homo sapiens, UniProt Q13796); assay: as above; details: PDZ hAPXL, PDZ Domain 1
T3 construct: made in house; host or cells: E. coli (DH5alpha, BL21 or JM109)
Summary of the method: as §1

[5] = target: T4, PDZ protein (GST-PDZ fusion) (Homo sapiens, UniProt Q99767); assay: as above; details: PDZ X11-beta, PDZ Domain 2
T4 construct: made in house; host or cells: E. coli (DH5alpha, BL21 or JM109)
T4 sequence (Q99767 1-749): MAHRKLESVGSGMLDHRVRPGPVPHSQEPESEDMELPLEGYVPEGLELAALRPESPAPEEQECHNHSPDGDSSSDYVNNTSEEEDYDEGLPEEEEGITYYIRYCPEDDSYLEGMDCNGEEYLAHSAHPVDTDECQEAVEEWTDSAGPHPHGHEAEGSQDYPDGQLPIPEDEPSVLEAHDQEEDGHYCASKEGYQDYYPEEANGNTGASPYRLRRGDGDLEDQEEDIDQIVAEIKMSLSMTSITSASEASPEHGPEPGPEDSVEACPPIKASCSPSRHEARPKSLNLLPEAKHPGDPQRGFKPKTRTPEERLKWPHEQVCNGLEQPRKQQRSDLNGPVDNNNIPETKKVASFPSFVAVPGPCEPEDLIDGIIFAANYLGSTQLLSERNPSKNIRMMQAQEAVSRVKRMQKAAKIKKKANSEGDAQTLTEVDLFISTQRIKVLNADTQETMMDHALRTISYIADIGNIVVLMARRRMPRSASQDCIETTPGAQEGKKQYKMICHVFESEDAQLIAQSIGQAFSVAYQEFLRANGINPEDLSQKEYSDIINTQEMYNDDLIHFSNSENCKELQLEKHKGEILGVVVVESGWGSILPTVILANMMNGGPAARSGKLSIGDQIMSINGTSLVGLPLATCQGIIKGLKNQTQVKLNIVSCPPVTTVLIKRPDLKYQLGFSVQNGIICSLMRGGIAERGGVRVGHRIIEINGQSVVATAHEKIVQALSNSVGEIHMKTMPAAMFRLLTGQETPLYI
Summary of the method: as §1

[6] = target: T5, PDZ protein (GST-PDZ fusion) (Homo sapiens, UniProt Q6P0Q8); assay: as above
T5 construct: made in house; host or cells: E. coli (DH5alpha, BL21 or JM109)
Summary of the method: as §1

[7] = target: T6, PDZ protein (GST-PDZ fusion) (Homo sapiens, UniProt Q02410); assay: as above
T6 construct: made in house; host or cells: E. coli (DH5alpha, BL21 or JM109)
T6 sequence (Q02410 1-837): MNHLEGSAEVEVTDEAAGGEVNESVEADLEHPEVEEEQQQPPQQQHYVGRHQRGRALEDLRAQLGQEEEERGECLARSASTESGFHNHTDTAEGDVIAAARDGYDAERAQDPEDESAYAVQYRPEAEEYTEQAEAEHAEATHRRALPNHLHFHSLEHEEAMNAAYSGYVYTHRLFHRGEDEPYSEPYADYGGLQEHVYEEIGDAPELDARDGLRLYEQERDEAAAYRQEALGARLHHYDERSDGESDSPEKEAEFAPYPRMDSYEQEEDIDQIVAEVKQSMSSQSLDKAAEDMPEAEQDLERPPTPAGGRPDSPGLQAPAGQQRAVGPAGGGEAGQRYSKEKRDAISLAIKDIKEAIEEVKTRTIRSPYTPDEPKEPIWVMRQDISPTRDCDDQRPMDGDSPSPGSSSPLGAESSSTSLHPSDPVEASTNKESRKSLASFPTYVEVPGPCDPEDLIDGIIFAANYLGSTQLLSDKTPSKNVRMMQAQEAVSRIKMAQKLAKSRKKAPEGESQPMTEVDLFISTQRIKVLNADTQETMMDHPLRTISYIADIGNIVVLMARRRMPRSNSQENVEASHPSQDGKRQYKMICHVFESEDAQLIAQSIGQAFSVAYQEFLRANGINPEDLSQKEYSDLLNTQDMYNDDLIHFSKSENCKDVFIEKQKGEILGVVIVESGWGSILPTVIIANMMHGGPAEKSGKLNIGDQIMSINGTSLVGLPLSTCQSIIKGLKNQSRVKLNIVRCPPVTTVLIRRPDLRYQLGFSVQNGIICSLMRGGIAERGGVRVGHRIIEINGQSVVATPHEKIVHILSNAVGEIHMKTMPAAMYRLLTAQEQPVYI
Summary of the method: as §1

PSD-95 = target: T7, PSD-95 (Homo sapiens, UniProt P78352); assay: G assay competition of short unlabeled peptides with biotinylated 20-mers (Example 6, TABLE 6); details: competitor 50 uM, 100 = no competitor
T7 construct: protein spans from amino terminal end of first PDZ domain to carboxy-terminal end of third PDZ domain in frame with GST in vector; made in house; host or cells: E. coli DH5alpha
Excerpt: (§2) The potential for unlabeled 8-mers and 3-mers to compete for binding with biotinylated 20-mers to PDZ domains was examined. Interactions between a PDZ domain and two or more biotinylated peptides mimicking PDZ ligands identified through the ‘G Assay’ were used as model interactions. Short, 3 or 8 amino acid, unlabeled peptides were synthesized by standard techniques and used at variable concentrations with a set concentration of biotinylated 20-mer. Ability of both the 3-mer and 8-mer to inhibit longer peptide binding was observed, making PDZ:PL interactions an attractive target for design of small molecule or peptide therapeutics.
(§3) Peptides representing the C-terminal 3, 8 or 20 amino acids of a PDZ ligand were synthesized by standard FMOC chemistry and biotinylated if not used as an unlabeled competitor. Peptides three amino acids in length were acetylated to more properly mimic the peptide bond without introducing an amino-terminal charged group. Peptides were purified by reverse phase high performance liquid chromatography (HPLC) using a Vydac 218TP C18 Reversed Phase column having the dimensions of 10*25 mm, 5 um. Approximately 40 mg of peptide was dissolved in 2.0 ml of and aqueous solution of 49.9% acetonitrile and 0.1% Tri-Fluoro acetic acid (TFA). This solution was then injected into the HPLC machine through a […] syringe filter (Millipore). Buffers used to get a good separation are (A) distilled water with 0.1% TFA and (B) 0.1% TFA with Acetonitrile.
(§4) The G Assay was performed as described in EXAMPLE 3 with the exception that when a short competitor was used, 30 ul of competitor peptide (at twice the final concentration) was mixed with 30 ul biotinylated 20-mer (at twice the final concentration) and then added to the well.
(§5) PSD-95 and DLG-1 were incubated in the wells at 5 ug/ml as described in the G Assay protocol. Biotinylated 20-mer peptides used were 20 uM CLASP-2, 20 uM CD46, 10 uM CD95, and 10 uM KV1.3 (find sequences of peptides in TABLE 8). Competitors (unlabeled, short peptides) tested against each of the biotinylated peptides were 50 uM 8-mer of CD95, 100 uM 8-mer of CD46, 50 uM 8-mer of CLASP-2, and 1 mM and 500 uM acetylated 3-mer of CLASP-2. To deduce sequences, refer to TABLE 8. All absorbances were read at 450 nm after stopping TMB detection reaction at 30 min. Results were normalized in each group by dividing its A450 by the A450 of the PDZ/peptide binding in the absence of competitor and converting to percentage by multiplying by 100.

DLG-1 = target: T8, DLG-1 (Homo sapiens, UniProt Q12959); assay: as above; details: competitor 50 uM; for % binding: 100 = no competitor
T8 construct: protein spans from amino terminal end of first PDZ domain to carboxy-terminal end of third PDZ domain in frame with GST in vector; made in house; host or cells: E. coli DH5alpha
Excerpt: as §2, §3, §4, §5

TIP-1 (GST-TIP-1) = target: T9, TIP-1 (GST-TIP-1) (Homo sapiens, UniProt O14907, I73S); assay: G assay with unlabeled 8 amino acid competitor peptide (Example 4, FIGS. 2B, 2C)
T9 construct: made in house; host or cells: E. coli DH5alpha
T9 sequence (O14907 3-123 I73S): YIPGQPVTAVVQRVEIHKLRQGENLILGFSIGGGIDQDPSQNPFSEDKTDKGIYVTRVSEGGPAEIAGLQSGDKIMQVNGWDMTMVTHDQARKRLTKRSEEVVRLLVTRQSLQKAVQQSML
Description: FIGS. 2A, 2B and 2C show binding and competition assays with the PDZ ligands of CD95 (Fas) and Tax for the PDZ domain of TIP-1.
Upon infection, the higher affinity of Tax could preferentially bind TIP-1 protein available in the cell, removing the TIP-1 bound to CD95 (Fas) and thereby rendering the cell less able to undergo apoptosis. In order to test this, competition experiments between Tax and CD95 for TIP-1 binding were performed using the ‘G Assay’, but adding additional unlabeled competitor peptide at step 9 of the ‘G Assay’ presented in EXAMPLE 3 section D.
FIGS. 2B and 2C show the results of these experiments. The graphs show the amount of binding of the biotinylated 20 amino acid peptide in the presence of increasing concentrations of unlabeled 8 amino acid competitor.

[8] = target: T10, PDZ protein (GST-PDZ fusion) (Homo sapiens, UniProt P55196); assay: G' assay (10 uM PL peptide), results of TABLE 7 and TABLE 12; details: PDZ AF6, PDZ Domain 1
T10 construct: made in house; host or cells: E. coli (DH5alpha, BL21 or JM109)
Summary of the method: as §1

[9] = target: T11, PDZ protein (GST-PDZ fusion) (Homo sapiens, UniProt P50479); assay: as above; details: PDZ LIM RIL, PDZ Domain 1
T11 construct: made in house; host or cells: E. coli (DH5alpha, BL21 or JM109)
T11 sequence (P50479 1-330): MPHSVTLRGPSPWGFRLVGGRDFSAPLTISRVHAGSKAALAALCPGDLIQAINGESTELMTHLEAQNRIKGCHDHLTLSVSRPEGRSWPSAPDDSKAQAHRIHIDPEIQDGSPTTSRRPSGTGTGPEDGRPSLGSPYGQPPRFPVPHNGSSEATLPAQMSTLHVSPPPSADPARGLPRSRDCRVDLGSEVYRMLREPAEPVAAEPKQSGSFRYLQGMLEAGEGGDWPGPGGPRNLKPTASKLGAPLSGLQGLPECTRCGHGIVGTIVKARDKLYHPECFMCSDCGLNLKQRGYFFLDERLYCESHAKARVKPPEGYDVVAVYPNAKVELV
Summary of the method: as §1

[10] = target: T12, PDZ protein (GST-PDZ fusion) (Homo sapiens, UniProt Q9NR12); assay: as above; details: PDZ ENIGMA, PDZ Domain 1
T12 construct: made in house; host or cells: E. coli (DH5alpha, BL21 or JM109)
Summary of the method: as §1

[11] = biotinylated 20-mer CLASP-2 20 uM
[12] = biotinylated 20-mer KV1.3 10 uM

T7 sequence (P78352 58-398 limits assumed): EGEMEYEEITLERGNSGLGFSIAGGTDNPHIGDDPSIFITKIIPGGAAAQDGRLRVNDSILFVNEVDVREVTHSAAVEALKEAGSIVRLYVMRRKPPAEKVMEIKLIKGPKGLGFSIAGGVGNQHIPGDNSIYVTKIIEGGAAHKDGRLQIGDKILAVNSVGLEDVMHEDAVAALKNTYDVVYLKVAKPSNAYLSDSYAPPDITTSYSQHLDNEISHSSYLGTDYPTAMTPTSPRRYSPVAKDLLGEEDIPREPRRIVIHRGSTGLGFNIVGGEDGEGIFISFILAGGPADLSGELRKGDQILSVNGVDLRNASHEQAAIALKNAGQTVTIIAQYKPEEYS
T3 sequence (Q13796 whole entry, the tested form may be a part): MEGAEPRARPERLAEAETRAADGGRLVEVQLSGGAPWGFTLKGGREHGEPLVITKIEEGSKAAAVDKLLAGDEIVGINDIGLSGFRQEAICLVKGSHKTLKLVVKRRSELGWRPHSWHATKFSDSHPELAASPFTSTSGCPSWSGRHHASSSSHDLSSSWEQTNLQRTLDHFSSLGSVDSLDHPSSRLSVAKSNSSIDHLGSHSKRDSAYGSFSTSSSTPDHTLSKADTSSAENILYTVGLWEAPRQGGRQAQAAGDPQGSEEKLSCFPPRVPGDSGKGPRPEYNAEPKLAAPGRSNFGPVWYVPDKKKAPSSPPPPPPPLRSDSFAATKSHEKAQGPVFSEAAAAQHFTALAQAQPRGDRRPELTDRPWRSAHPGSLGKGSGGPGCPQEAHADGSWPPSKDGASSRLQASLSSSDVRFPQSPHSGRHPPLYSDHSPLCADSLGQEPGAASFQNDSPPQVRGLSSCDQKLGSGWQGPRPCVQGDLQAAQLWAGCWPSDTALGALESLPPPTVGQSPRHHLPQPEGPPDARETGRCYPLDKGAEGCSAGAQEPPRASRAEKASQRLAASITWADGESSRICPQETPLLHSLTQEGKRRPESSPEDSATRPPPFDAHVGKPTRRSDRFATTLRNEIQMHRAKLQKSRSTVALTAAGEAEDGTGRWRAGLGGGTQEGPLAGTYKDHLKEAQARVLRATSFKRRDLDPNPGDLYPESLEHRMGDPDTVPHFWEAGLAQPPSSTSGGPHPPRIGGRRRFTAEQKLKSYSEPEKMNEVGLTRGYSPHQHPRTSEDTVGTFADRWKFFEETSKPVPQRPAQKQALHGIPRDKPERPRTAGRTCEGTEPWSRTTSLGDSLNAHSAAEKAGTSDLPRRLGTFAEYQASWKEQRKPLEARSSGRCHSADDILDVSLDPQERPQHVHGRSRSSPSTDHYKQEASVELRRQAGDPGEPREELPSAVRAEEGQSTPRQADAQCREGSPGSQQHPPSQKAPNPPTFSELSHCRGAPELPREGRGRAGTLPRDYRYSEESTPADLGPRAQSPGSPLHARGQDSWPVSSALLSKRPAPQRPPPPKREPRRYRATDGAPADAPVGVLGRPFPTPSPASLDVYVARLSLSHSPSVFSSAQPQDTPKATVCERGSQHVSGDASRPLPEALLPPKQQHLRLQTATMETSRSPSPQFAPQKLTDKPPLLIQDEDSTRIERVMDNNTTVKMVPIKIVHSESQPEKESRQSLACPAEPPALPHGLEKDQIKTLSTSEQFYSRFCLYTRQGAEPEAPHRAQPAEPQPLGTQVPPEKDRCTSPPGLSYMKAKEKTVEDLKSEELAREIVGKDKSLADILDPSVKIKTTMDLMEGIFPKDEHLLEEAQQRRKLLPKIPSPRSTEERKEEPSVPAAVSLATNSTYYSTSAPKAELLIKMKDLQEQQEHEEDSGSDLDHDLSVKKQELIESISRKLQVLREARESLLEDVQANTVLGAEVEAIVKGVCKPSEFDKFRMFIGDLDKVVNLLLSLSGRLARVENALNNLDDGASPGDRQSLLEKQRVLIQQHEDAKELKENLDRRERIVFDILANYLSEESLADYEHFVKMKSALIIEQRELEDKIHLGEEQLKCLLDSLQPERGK
T8 sequence (Q12959 224-546 limits assumed): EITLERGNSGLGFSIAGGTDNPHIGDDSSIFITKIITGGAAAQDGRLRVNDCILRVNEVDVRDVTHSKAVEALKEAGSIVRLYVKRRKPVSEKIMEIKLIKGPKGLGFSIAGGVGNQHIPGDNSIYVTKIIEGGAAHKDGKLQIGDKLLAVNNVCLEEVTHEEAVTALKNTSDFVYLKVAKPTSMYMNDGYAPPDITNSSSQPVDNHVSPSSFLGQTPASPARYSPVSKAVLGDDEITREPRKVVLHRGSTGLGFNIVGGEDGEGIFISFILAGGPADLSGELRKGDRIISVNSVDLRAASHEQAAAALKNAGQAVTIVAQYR
T12 sequence (Q9NR12 whole entry, the tested form may be a part): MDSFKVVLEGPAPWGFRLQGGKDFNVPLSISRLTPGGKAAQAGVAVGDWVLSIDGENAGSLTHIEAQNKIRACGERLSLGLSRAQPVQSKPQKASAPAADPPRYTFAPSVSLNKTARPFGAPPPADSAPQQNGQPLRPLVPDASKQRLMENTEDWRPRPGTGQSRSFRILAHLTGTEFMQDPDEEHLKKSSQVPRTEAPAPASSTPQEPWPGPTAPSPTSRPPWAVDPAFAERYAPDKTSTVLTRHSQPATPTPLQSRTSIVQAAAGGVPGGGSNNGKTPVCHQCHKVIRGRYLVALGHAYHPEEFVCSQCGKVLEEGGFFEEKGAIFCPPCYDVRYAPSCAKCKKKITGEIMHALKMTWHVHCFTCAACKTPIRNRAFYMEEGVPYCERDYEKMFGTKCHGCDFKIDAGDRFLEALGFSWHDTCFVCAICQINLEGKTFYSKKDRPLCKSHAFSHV
T5 sequence (Q6P0Q8 whole entry, the tested form may be a part): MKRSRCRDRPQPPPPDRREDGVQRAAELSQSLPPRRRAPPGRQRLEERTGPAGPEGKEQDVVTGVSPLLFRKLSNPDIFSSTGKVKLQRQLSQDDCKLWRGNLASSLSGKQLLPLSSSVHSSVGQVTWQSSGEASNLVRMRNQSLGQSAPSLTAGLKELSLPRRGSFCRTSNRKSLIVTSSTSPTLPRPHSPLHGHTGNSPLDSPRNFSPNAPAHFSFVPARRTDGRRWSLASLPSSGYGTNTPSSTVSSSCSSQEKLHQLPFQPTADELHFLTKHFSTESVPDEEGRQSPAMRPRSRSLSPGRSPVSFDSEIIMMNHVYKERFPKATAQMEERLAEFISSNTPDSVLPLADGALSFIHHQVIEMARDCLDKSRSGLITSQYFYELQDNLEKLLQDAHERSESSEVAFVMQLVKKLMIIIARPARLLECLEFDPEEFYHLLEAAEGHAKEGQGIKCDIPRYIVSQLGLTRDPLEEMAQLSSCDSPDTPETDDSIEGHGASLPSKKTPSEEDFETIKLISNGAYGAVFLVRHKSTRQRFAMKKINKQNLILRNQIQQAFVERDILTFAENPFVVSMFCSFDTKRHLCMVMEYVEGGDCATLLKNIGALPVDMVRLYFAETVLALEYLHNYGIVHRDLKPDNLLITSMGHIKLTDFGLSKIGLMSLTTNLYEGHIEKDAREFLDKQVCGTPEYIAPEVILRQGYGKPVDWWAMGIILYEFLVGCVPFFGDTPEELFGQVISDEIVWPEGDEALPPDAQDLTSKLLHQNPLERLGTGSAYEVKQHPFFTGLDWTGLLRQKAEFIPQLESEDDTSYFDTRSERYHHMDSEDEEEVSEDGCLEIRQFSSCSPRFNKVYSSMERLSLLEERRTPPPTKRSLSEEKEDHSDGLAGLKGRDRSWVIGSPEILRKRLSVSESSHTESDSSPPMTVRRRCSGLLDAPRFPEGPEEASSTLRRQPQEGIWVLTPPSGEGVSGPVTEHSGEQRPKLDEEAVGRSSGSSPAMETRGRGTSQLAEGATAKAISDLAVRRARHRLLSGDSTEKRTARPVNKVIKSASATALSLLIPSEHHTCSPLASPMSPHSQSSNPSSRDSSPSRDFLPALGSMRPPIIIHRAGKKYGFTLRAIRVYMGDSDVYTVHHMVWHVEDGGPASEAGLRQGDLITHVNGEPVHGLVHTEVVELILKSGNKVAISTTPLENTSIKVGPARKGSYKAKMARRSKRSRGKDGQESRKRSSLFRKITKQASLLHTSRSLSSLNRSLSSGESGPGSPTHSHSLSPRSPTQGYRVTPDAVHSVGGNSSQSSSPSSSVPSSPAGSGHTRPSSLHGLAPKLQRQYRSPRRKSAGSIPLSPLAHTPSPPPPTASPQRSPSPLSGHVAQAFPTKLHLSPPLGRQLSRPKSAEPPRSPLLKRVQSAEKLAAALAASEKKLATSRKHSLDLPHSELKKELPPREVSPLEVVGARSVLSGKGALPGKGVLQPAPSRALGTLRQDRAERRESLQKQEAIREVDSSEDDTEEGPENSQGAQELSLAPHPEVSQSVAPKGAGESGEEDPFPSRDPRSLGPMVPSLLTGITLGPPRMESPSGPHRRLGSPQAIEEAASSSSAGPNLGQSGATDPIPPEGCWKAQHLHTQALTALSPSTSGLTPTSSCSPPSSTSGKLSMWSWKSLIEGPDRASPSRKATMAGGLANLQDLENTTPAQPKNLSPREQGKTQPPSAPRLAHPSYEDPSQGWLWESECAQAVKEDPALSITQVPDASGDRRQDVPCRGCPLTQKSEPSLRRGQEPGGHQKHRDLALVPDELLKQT

NGGFAVDKSDTISFTQTSQF [glutamate transporter 3]
Classification ([1]; PDZ BAI-1, PDZ Domain 4): 1 (A450 nm 0-1)
Classification [2]: 1 (A450 nm 0-1)
Classification [3]: 1 (A450 nm 0-1)
Classification [4]: 1 (A450 nm 0-1)
Classification [5]: 1 (A450 nm 0-1)
Classification ([6]; PDZ KIAA807): 1 (A450 nm 0-1)
Classification ([6]; PDZ KIAA0807(S), PDZ Domain 1): 1 (A450 nm 0-1)
Classification ([7]; PDZ Mint 1, PDZ Domain 1, 2): 1 (A450 nm 0-1)
Classification ([7]; PDZ Mint 1, PDZ Domain 2): 1 (A450 nm 0-1)

RNEIQSLV [CD95 8-mer, unlabeled peptide of the C-terminal 8 amino acids of CD95]
% binding (PSD-95; biotinylated 20-mer CD46 20 uM): 100%
% binding (PSD-95; biotinylated 20-mer CD95 10 uM): 75%
% binding (PSD-95; [11]): 92%
% binding (PSD-95; [12]): 87%
% binding (DLG-1; biotinylated 20-mer CD46 20 uM): 110%
% binding (DLG-1; biotinylated 20-mer CD95 10 uM): 70%
% binding (DLG-1; [11]): 73%
% binding (DLG-1; [12]): 84%
reduction of binding of CLASP-2 and CD95 labeled ligand (DLG-1; 2.5 to 5-fold excess): approximately 30%
concentration of unlabeled competitor it takes to compete for binding of Tax to TIP-1 (FIG. 2C) (TIP-1 (GST-TIP-1); unlabeled 8 amino acid CD95 competitor, 1 μM labeled Tax 20-mer): 100 to 500 µM
excess needed to interfere with the binding of Tax to TIP-1 (TIP-1 (GST-TIP-1); unlabeled CD95 8-mer versus labeled Tax): ~500 fold

YSATYSELEDPGEMSPPIDL (Biotin-YSATYSELEDPGEMSPPIDL) [FceRlb]
Classification ([1]; PDZ LIM Protein, PDZ Domain 1): 2 (A450 nm 1-2)
Classification [8]: 2 (A450 nm 1-2)
Classification [9]: 1 (A450 nm 0-1)
Classification [10]: 2 (A450 nm 1-2)
Classification [4]: 1 (A450 nm 0-1)

EVIGYIEKPGVETLEDSVF (Biotin-EVIGYIEKPGVETLEDSVF) [CDW125 (modified)]
Classification [10]: 1 (A450 nm 0-1)
Classification [4]: 1 (A450 nm 0-1)
